Tests used:
human serpinB10 = biological target: T1, human serpinB10 (human, UniProt P48595 1-397); assay: ELISA cross-reactivity test / Luminex bead assay (FIG. 25)
T1 construct: Luminex antigen captured from a 293 cell lysate; not shown: V5-His tag of the pcDNA3.1 Directional V5-His-TOPO vector
T1 sequence (looked up): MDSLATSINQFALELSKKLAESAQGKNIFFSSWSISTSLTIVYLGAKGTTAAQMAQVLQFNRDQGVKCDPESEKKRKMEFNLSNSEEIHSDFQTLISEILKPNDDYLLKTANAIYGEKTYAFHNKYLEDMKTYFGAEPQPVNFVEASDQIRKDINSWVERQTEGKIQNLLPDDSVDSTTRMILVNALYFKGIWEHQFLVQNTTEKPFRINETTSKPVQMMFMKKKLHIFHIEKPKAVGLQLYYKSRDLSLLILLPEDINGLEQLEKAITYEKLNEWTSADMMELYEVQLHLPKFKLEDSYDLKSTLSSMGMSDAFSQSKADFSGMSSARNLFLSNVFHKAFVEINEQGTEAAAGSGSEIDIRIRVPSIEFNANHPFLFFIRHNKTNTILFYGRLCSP
Experimental: Three recombinant human anti-serpinB13 antibodies were examined in the Luminex-based assay for binding to other clade B serpins, in order as indicated. The final concentration of each antibody was 1.0 μg/mL. The data are expressed as immunofluorescence intensity measured for binding to individual human serpin antigens after subtracting the background. The latter was determined as the average antibody binding to Luminex beads coated with Gfp and Scgn control antigens. Similar data were obtained for antigen binding of Fab fragments of these antibodies (data not shown).
(§1) Luminex assay. Luminex-based technology was used to measure serpinB13 AA in human samples. Initially, the Luminex beads were precoated with serpinB13, Gfp and Scgn, using precleared lysates of 293 cells that had been transfected with individual cDNAs. Biotinylated mouse anti-human K and 2 chain mAbs (BD Biosciences) (dilution 1:300) and streptavidin (Invitrogen) (dilution 1:200) were used as secondary reagents to measure human serum binding activity to individual antigens. The data were expressed as fluorescence intensity (F.I.) due to serum binding activity in the presence of beads precoated with serpinB13 and after subtracting the average F.I. due to serum binding activity in the presence of beads precoated with control proteins, Gfp and Scgn (e.g. F.I.^B13-[F.I.^GFP+F.I.^Segn]/2). The samples were evaluated based on the level of F.I. and the degree of inhibition of binding to serpin-B13 coated beads with soluble serpinB13 (2.5 μg/mL), compared with the bovine serum albumin (BSA). […] All samples were run blind on three independent occasions. Subjects with serum samples that produced a positive results three times were considered positive. Subjects with serum samples that produced a negative result on at least one occasion were considered negative.
To determine whether anti-serpin activity is specific, binding of three human recombinant antibodies to serpinB13 was examined for potential cross-reactivity with other clade B serpins.

human serpinB6 = biological target: T2, human serpinB6 (human, UniProt P35237 1-376); assay: Luminex bead assay, beads coated with human serpinB6, background (Gfp and Scgn beads) subtracted
T2 construct: Luminex antigen captured from a 293 cell lysate; not shown: V5-His tag of the pcDNA3.1 Directional V5-His-TOPO vector
T2 sequence (looked up): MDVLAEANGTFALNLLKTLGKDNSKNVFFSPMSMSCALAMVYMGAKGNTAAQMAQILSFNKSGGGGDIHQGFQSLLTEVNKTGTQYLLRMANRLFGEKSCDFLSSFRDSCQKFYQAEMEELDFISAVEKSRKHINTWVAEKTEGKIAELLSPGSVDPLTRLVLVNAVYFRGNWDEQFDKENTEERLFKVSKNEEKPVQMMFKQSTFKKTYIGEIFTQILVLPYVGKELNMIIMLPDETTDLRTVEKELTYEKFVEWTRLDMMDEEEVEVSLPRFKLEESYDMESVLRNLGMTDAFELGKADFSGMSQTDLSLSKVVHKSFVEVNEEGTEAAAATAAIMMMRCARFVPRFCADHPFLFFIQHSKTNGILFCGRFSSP
Experimental: The latter was determined as the average antibody binding to Luminex beads coated with Gfp and Scgn control antigens. Similar data were obtained for antigen binding of Fab fragments of these antibodies (data not shown).
as §1
To determine whether anti-serpin activity is specific, binding of three human recombinant antibodies to serpinB13 was examined for potential cross-reactivity with other clade B serpins. Binding to the beads conjugated with Gfp and Scgn was used to subtract the background and the assay was developed using the same reagents as those described above for measuring serpinB13 AA in serum samples.

B1: recombinant fully human anti-serpinB13 antibody Clone 3 (antibody, human IgG1, kappa, V domains shown)
VH: QVQLQQWGAGLLKPSETLSLTCAVYGGSFSGYYWSWIRQPPGKGLEWIGEINHSGSTNYNPSLKSRVTISVDTSKNQFSLKLSSVTAADTAVYYCARRYCSGGSCYLVGTGSELDYWGQGTLVTVSS
VL: DIQMTQSPSTLSASVGDRVTITCRASQSISSWLAWYQQKPGKAPKLLIYKASSLEIGVPSRFSGSGYGTEFTLTISSLQPDDFATYYCLQYSTHSTFGQGTRVEIKR
notes: also called mAb3; CLONE3-H(m1) / CLONE3-L(m1)
- binding result (human serpinB10): no binding (tested: 1.0 µg/mL)
- binding result (human serpinB6): no binding (tested: 1.0 µg/mL)

B2: recombinant fully human anti-serpinB13 antibody Clone 2 (antibody, human IgG1, kappa, V domains shown)
VH: QMQLVQSGGGVVRPGGSLRLSCAASGFTFDDYGMSWVRQAPGKGLEWVSGINWNGGSTGYADSVKGRFTISRDNAKNSLYLQMNSLRAEDTALYYCARESSMTTVTTYLLREVGVGLDFDYWGQGTLVTVSS
VL: ETTLTQSPGTLSLSPGERATLSCRASQTVSGSYLAWYQQKPGQPPRLLIYGASSRATGIPDRFSGSGSGTDFTLTISRLEPEDFAVYYCQDYGSSRTFGQGTKVELKR
notes: also called mAb2; CLONE2-H(m1) / CLONE2-L(m1)
- binding result (human serpinB10): no binding (tested: 1.0 µg/mL)
- binding result (human serpinB6): no binding (tested: 1.0 µg/mL)

B3: recombinant fully human anti-serpinB13 antibody Clone 1 (antibody, human IgG1, kappa, V domains shown)
VH: QVQLQESGGGVVQPGRSLRLSCAASGFTFSSYGMHWVRQAPGKGLEWVAVISYDGSNKYYADSVKGRFTISRDNSKNTLYLQMNSLRAEDTAVYYCARDLGAVIAVAGTSTPYNWFDPWGQGTLVTVSS
VL: DVVMTQSPLSLPVTPGEPASISCRSRQSLLHSNGHNYLGWYLQKPGQSPQLLIYLASIRASGIPDRFSGSGSGTDFTLKISRVEAEDVGVYYCMQALQTPYTFGQGTKLEIKR
notes: also called mAb1; mAbs1
- binding result (human serpinB10): no binding (tested: 1.0 µg/mL)
- binding result (human serpinB6): no binding (tested: 1.0 µg/mL)

From patent US20260116996A1 (REGENTS OF THE UNIVERSITY OF MINNESOTA, published 2026)
